Data reported in the DeepSol protein solubility set.

Assay: soluble on expression in E. coli; label from the status in PepcDB or PDB records

Sequence | soluble on expression in E. coli
MEFYDARKWCHYQSPVPSYLAYVPDLSTSNFLATYARAAFETNRFWIGLSRFDYFDPYLWDNGRPVTYTNFGTGTGNFVAEHTLNGKWYLYGNGAKNVFVCSYDPAAPPTFPPPFILTTRQSTITSANSCQPGGPISFLFAYSNDLDPQVVKDSWDLSNIDDYSGYSVYAIAKFDVLEEEDIVYFLDKKLATTYVHSHLSNSSLGFNGTTTGSDSLRIIEVGNVEGIESSQFLNFQKFFNNKDVTVCGSVCLILEKRYPNDEDISKTVSLVRYYHGIVYAVSSINPSGGTQSKAIYNLTSRTNGIFCSTDPSGGNQSKTIYNLTSKTNGLCNFAKDKDIAGLVTSVPMFYPPYPIYCANVLVSGQNITELPSMYVPQSIMYYTVFASVEDHGPLDNFQSFDFSWFNSDEPRYIQHLQSNSTVMDGVTSSGVYYIAPEIYTMKVQYNYTNKMEQAMQVRVYTYDGENSADWIPYCD | not soluble
MGSDKIHHHHHHMNVLYVTVDALRADHVTPELMPNVSGFVDRSIEYERCYANGPGTPWSFPALLGSQYSGANDGVGIPGEDDSRPTLAEVLRDEGYETAGFTDNHFASSDYNYDRGMTTMFDAGATSSEKRLKQAVRKRLDHDGTLYQMLLRGHHLIDDLLVKIQGRDTRFTRAETLIDSLVDWIDERNDQWFAWLHPMDTHAPYEAPDDYQEQFLDEPIPRRRSQKLARKATHHPDELSDDEWELQQQLYKAECSYLDDQIGRLLDSFPEPERENTLLVFTADHGEMHGEHGLGGHPQQFWEEVIHVPCAISAPGFEATTVNEQAALIDIPPTILDAVGIDAPEYWDGMSVLPDEGTVQEREYVFVDVESELNRNHAGVRRSDNWKLMRHDDEGELLLDLDTNPEEDPEQTRLNDAPEAYRALTDSLDNHLDEMERRRSGETSGIEDEELIEDHLRELGYLE | not soluble
MAHHHHHHMLANYDYESDLRGRTDELGRAQHVDAYDKHPTFLESPYAGQEDLLRDAPQSYMDGPPPGYGGHDAYEHVDMNGGGYDLPLQPQAQTQAVDTRRLSKDRLARGGLNIFSWSTDAPTLNHPREVRERDCAELQRLRPVDSAAQRDKEVREKFEGNTQSRFLCFSESDSPGKRRGVRVFNPNNKNGNLNSGTGHENPIQNRFNEEPQPFKIRQQQPRPLPQQNLPPAGRATHSNRQESGGIPGFAGMGEGRQHNARRGRGSYRG | soluble
MGSDKIHHHHHHMSIFISGSLAYDRIMNFPGKFSDHILPDKIHILNVCFLIDRLEEKRGGTAGNIAYSLALLGEKPTILATVGKDFDRYEEVLTGLGLPQDGIRKMDDQFTAGAYITTDQSDNQITGFNPAAMSHPCGYQFNGVTPENDLAIVSPGNLQDMVELPRKFRSMGMRYIFDPGQQITALTGDSMLECINGAHMLVSNDYELEMIMKATGRTKAELLTMTDYIITTLGENGSRIDNGEPVMVGIARPRQVLDPTGAGDAFRAGLLKGLTDGLDVAGAAKIGATCASFCVEHYGTQEHTFTPEEFKARHQAAFGA | not soluble
MGSDKIHHHHHHMSGRTMSSIYILWDASHIWGLLAWRTAQSLDLPYRLVRGEEIAQGLLSGKPPALLLVPGGNARMKSVALGAAGMQAIRDYVRGGGAYVGFCGGAGLGLSGSEGLGLCPWGRARFTDRMQHFVSGHVHARVARGHDLVPADLCTDACAEPPVPIWWPGRFAPEKTGDVEVLATYTTPCDDFWVADLPLDTLPPGTFSEWESLYDIRLRPTFLEDQPCILSGRYGKGRYVLSYTHLETPDSPTANRWLLHIIRTLGGIEPPLQRVPAWDLENQQAAWLDPDLLHARGIFDDIVTIGRNHCLFFKRNAWLIGWRAGIPGANLNNLYAAVVTAVSNPPTAECTAYWQEQRQPFMRKLALFHEGVKGYLLAERLAMTLSKTFPETVSRESLRNQRAALFGPPMDSGGLYQELLDTLDELLYRQLPHGL | not soluble
MASRVDETTVPSYYYYVDPETTYTYQQPNPLQDLISVYGLDDISRQVARTNLDGTKAVKLRKSYKNQIADLSGKFSTIPTRENGKGGQIAHILFQNNPDMMIQPPQQGQNMSEQQWREQLRNRDIALFQPPNFDWDLCSSVLSQFERSYPSEFANQNQGGAQAPFDIDDLAFDLDGTGKSQSGSNSGNNSKKRKNKSSGSSMATPTHSDSHEDMKRRRLE | soluble
MGSDKIHHHHHHMTSQYKASRFATPRDMPEQTYRLSNVCLPAPLSMGELETFSAISRQVSPLRKRHTLFEQGEAFRSLYIVRCGSLKQVYRDITREEHVTQFYLPGEVVGLDALSSGFHPGATIALETTSVCEIGPESIEELAHGDRTERGVGGCFLRVMSRAMHQERMMVRLFLNRTSDVRLASFLLALSGRFRQQGYSPFCFRLSMSRSDIGNYLGLAVETVSRLLGRFQHLGLLTAKGREIRIDDLEALAALADGRSRHSIWDTADEAPERLASMSTH | not soluble
MAQVAIFKEIFDQVRKDLNCELFYSELKRHNVSHYIYYLATDNIHIVLENDNTVLIKGLKKVVNVKFSRNTHLIETSYDRLKSREITFQQYRENLAKAGVFRWITNIHEHKRYYYTFDNSLLFTESIQNTTQIFPR | not soluble
MGSDKIHHHHHHDSDIDPVYVLSGDSMELMGGPNEVILTPDNPQALALTVYWSGDGRLALSDTLLQAPVNVAEITIQFSKDEHFTAPLNIAVDKNIHSRQFLCEELNSLLDRLGYEANEKAPLWIRMRSALAANIAPEYSNVMEVLVQSYRIELVLAQVLDKDWKNTSMTLASPAEDGIYKGFMGVNGWENWWLREANNVMWGNLGEEGKTFYASSEDSHWNFWFPNPSGCYYTTVNTVEGWWSALHVASLSVSGDVTGEMAYNKQSNQWTLPVNLATQSTLTISVSGKGSLYNRETTDIGPAIEQTVAFGGNSQNLLFGESADNISVTMPAGENLLVLDLSNPLQFTIGIGEDVPQPEVSQYLYFSGITNWEGFDDYLTLYDEAGLCYGGAHWIDSEWGYRAYTEQAWEPAYNAADGSTDLSGTLILAESKDNIPAPAQGLYVMDFNMKSLTYELTQVQTVTFTGLNDNWSESPMTQSAENPEIFTAEFIKEKKSPWGVKVLINNNWNLFFGGGSGILHLKHSESSAGFDGDDELEIGKTYVLTVDLGHQTYSYSLK | not soluble
CSKPETNVVAQDGSTSAAAAQVETQTAESRYLALVDGYFKDYLKLEPIYATFVGVNDYNTQFGGDLTEEYLKARHDLNTRYLAQVKTIDLDELPADLQLSYSLFVYDREMALVDETYPSRFMPISQFYSTVITMVQLGSGESAQPFNTVQDYRNWEQRVNGFIDWIKLAQHRMDEGIASKVVLPRVLVERIIPQLDAMLTTDASQSIFYSPITHFPEGFSAQDKAELTASYQAMISERLVPTLTGLRDYFKQTYLPKSRATDGWSGLPNGKAWYQHLANSHTTTTMPVDEIHQIGLSEVARILSEMDKVREQVGFKGDLKAFFASLSSEPQYFYSDRQGLIDGYMALKDKINLVLPQYFNVMPKADYVVKPVESFREQSAAGASYEAPAVDGSRPGVFYINTYNLKAQPKWGMTTLSLHEAAPGHHFQIAIKQELTGVPEFQRFSGYTAFEEGWALYAEYLGIEMGLFSDPYQYFGKLSDEMLRAMRLVVDTGLHAKGWSREQAIQYMKDNSPMAESDIVAEVERYMAIPGQALSYKVGQLKILALRERAEKALGDKFDLKAFHDQILTSGSLPMAVMEQKIDRWIAANK | not soluble
MTNNDKNKKIVPEVKGTLRSHMIELPEVIRNATGIRVFGKRLKSFVFSTDVAVIRNTNADAVIAVYPFTPQPVITAAIVLAADVPVFCGVGGGLTMGKRVVNLALDAEFKGAMGVVVNSPTPNDIIREVRETIDIPIIVTVVSEYEDVQARIDSGATILNVSGAKRTSHIVRSIREKFPSIPIIATGGNNEASIIETIEAGANAITYTPPTTGKIFGDTMNSYRKKFE | not soluble
MATRNEEILRKPDWLKIKLNTNDNYTGLKKMMREKNLHTVCEEAKCPNIHECWGARRTATFMILGAVCTRACRFCAVKTGLPNELDLNEPERVAESVELMNLKHVVITAVARDDLRDQGSNVYAETVRKVRERNPFTTIEILPSDMGGDYEALETLMASRPDILNHNIETVRRLTPRVRARATYDRTLQFLRRSKELQPDIPTKSSLMVGLGETMEEIYETMDDLRANDVDILTIGQYLQPSRKHLKVEKYYTPLEFGKMRKIAMEKGFKHCQAGPLVRSSYHADEQVNEAAKEKQRQGEEQLN | not soluble
QSSSSAIEATIEGNSQTTISQTSHFIQSYIKKLETTSTGLTQQTDVLAYAENPSQDKVEGIRDLFLTILKSDKDLKTVVLVTKSGQVISTDDSVQMKTSSDMMAEDWYQKAIHQGAMPVLTPARKSDSQWVISVTQELVDAKGANLGVLRLDISYETLEAYLNQLQLGQQGFAFIINENHEFVYHPQHTVYSSSSKMEAMKPYIDTGQGYTPGHKSYVSQEKIAGTDWTVLGVSSLEKLDQVRSQL | not soluble
MADGMGNLIGWEKTGLVVGKQWITAKDDKVSDVCNANGEMGVIGLYEPFSHGALTIPGHPNCRCEVVSVSGGELGEFAEKKELRKAAMQYARDNFIGKSYVNKNSGHELKVTWQGVKHAASKANQAELSIMTKLDDLLRYAKYEGSYSDRKGHPNIIAAHKYRAVAKVGNESLNIGVIVREFPDDHKHYDHFILKDE | not soluble
MGSDKIHHHHHHMNAVPKDEMTPLERMAAFAAGKPYDRIPCSSFSGETACHFIGTTVSEYRHSAKLMARVETVTYKMFGHDGAGVGPGFLALAEAMGTELKYPEDNIPFVANPVLKNWDDFDKLEPADPHKDGKLPIYLEALAMIKDAIGDEVPIGSSVGGPFTTAALVRGTENFLKDLRRNPEMAHRLLQLVTNTTLNYIDAVMDMGCSVSIGDPTASGSLLSVKQFREFAKPYLSKLADRVIERTGKGPMLHICGDSTPIWSDMADTGAPTLSLDNVIDLAEAKKVVGERVCIMGNVKPIDTIMKGSHQQIEAEVKECLRKAYDSPKGFILAVGCQVPLGTTADNFMCFMNAARKYGRYPLNPDNFI | not soluble
MASTVLNVPIAQPENGSSDKIPKWSARAIKSLAMGELEARKLKYPSTGTEAILMGILVEGTSTVAKFLRGNGVTLFKVRDETLSLLGKSDMYFFSPEHPPLTEPAQKAIAWAIDEKNKSDVDGELTTAYLLLGVWSQKDSAGRQILEKLGFNEDKAKEVEKSMNEDVDLSFKKQGQLEHHHHHH | soluble
MGSDKIHHHHHHMDQEQLDALANAALEELARRNYGDFFYLSHGKQWDLLRHQKYITDRLQKIIDGEQKYYIIEIPPQHGKSTVITETFPAYYLMRHPDSLVMVVSYSKELFQKFGRKNREKFRLFSDQLFGLQISSETSSVSEWGVEGHLGSLYSTSILGGATGRGARLLIIDDPIKNRAEAESKTIRDKIYNEWQDTFYSRLTADASVIVIMTRWHEDDLAGRLLKEQTLPWEEIKIPAIAEDDDLLGRKPGEALAPEIGKDEEWAAKTKAVTGSRGWAALYQQRPTPAGGNIFKRSWIKFYVPTLSKKIELSLGDDVVILPRLFDRQAQSWDCTFKDTETSDYVSGQVWGKKRADFYLLDRHHERMGIVETMKAIDAMAAKWPKARGIYIEDKANGTAVIEMLKNELSGIIAVNPEGGKEVRANAVAPIWEAGNVYLPHPLVCPWVDDFINELVAFPNAEHDDDVDSMTQILNKMIGKVSLRERYLDN | not soluble
MSGSYDEASEEITDSFWEVGNYKRTVKRIDDGHRLCNDLMSCVQERAKIEKAYAQQLTDWAKRWRQLIEKGPQYGSLERAWGAMMTEADKVSELHQEVKNSLLNEDLEKVKNWQKDAYHKQIMGGFKETKEAEDGFRKAQKPWAKKMKELEAAKKAYHLACKEERLAMTREMNSKTEQSVTPEQQKKLVDKVDKCRQDVQKTQEKYEKVLEDVGKTTPQYMEGMEQVFEQCQQFEEKRLVFLKEVLLDIKRHLNLAENSSYMHVYRELEQAIRGADAQEDLRWFRSTSGPGMPMNWPQFEEWNPDLPHTTAKKEKQPKKAEGATLSNATGAVESTSQAGDRGSVSSYDRGQTYATEWSDDESGNPFGGNEANGGANPFEDDAKGVRVRALYDYDGQEQDELSFKAGDELTKLGEEDEQGWCRGRLDSGQLGLYPANYVEAI | soluble
